B1: Replication and transcription activator (Epstein-Barr virus (strain B95-8) (HHV-4)), P03209 (parent)
chain: MRPKKDGLEDFLRLTPEIKKQLGSLVSDYCNVLNKEFTAGSVEITLRSYKICKAFINEAKAHGREWGGLMATLNICNFWAILRNNRVRRRAENAGNDACSIACPIVMRYVLDHLIVVTDRFFIQAPSNRVMIPATIGTAMYKLLKHSRVRAYTYSKVLGVDRAAIMASGKQVVEHLNRMEKEGLLSSKFKAFCKWVFTYPVLEEMFQTMVSSKTGHLTDDVKDVRALIKTLPRASYSSHAGQRSYVSGVLPACLLSTKSKAVETPILVSGADRMDEELMGNDGGASHTEARYSESGQFHAFTDELESLPSPTMPLKPGAQSADCGDSSSSSSDSGNSDTEQSEREEARAEAPRLRAPKSRRTSRPNRGQTPCPSNAAEPEQPWIAAVHQESDERPIFPHPSKPTFLPPVKRKKGLRDSREGMFLPKPEAGSAISDVFEGREVCQPKRIRPFHPPGSPWANRPLPASLAPTPTGPVHEPVGSLTPAPVPQPLDPAPAVTPEASHLLEDPDEETSQAVKALREMADTVIPQKEEAAICGQMDLSHPPPRGHLDELTTTLESMTEDLNLDSPLTPELNEILDTFLNDECLLHAMHISTGLSIFDTSLF

Variants of: B1
Conditions: with po2f1_human POU2F1, P14859
Chain of po2f1_human POU2F1, P14859 (P14859 whole entry): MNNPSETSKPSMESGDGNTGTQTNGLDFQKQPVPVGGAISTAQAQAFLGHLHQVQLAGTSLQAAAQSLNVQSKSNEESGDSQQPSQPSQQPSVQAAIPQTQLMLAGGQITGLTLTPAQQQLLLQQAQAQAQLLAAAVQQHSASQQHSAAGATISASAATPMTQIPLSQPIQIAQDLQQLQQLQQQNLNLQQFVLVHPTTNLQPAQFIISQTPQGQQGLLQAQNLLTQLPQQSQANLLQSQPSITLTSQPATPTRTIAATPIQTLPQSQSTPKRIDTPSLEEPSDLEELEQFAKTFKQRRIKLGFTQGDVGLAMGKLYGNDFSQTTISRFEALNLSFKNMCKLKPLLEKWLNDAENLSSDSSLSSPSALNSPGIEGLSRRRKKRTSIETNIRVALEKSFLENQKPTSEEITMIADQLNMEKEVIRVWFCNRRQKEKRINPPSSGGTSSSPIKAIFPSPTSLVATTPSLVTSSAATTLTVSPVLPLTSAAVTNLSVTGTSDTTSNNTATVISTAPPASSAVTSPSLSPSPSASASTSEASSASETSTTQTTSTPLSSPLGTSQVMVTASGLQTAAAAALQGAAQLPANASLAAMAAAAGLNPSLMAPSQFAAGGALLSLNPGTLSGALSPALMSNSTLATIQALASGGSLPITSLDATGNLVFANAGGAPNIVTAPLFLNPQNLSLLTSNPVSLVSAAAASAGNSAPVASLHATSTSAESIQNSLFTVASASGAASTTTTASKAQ

Row | Variant | effect of a mutation on the interaction
1 | M140A | decreasing interaction

Source: IntAct's records for PubMed 21697476
